Consider 85 variants from the MegaScale stability set (Tsuboyama et al. 2023).

B1: 2K2A (parent)
chain: ELREAFRLYDKEGNGYISTDVMREILAELDETLSSEDLDAMIDEIDADGSGTVDFEEFMGVMT

Variants of B1 are the subject of the series. Description: folding stability dG (cDNA display proteolysis); higher = more stable. The note with it: PBS, room temperature.
Take ELREAFRLYDKEGNGYISTDVMREILAELDETLSSCDLDAMIDEIDADGSGTVDFEEFMGVMT: the “folding stability dG” value was 1.85 kcal/mol.

Consider ELREAFRLYDKEGNGYISTDVMREILAELDETLSSDDLDAMIDEIDADGSGTVDFEEFMGVMT, for which the “folding stability dG” value is 1.89 kcal/mol. Regarding ELREAFRLYDKEGNGYISTDVMREILAELDETLSSADLDAMIDEIDADGSGTVDFEEFMGVMT, the “folding stability dG” value amounted to 1.96 kcal/mol. To ELREAFRLYDKEGNGYISTDVMREILAELDETLSSFDLDAMIDEIDADGSGTVDFEEFMGVMT belongs 1.83 kcal/mol; to ELREAFRLYDKEGNGYISTDVMREILAELDESLSSEDLDAMIDEIDADGSGTVDFEEFMGVMT, 1.99 kcal/mol; to ELREAFRLYDKEGNGYISTDVMREILAELDEILSSEDLDAMIDEIDADGSGTVDFEEFMGVMT, 0.878 kcal/mol. To ELREAFRLYDKEGNGYISTDVMREILAELDEALSSEDLDAMIDEIDADGSGTVDFEEFMGVMT belongs 1.5 kcal/mol; to ELREAFRLYDKEGNGYISTDVMREILAELDERLSSEDLDAMIDEIDADGSGTVDFEEFMGVMT, 1.74 kcal/mol. To ELREAFRLYDKEGNGYISTDVMREILAELDEDLSSEDLDAMIDEIDADGSGTVDFEEFMGVMT belongs 1.42 kcal/mol; to ELREAFRLYDKEGNGYISTDVMREILAELDEYLSSEDLDAMIDEIDADGSGTVDFEEFMGVMT, 1.54 kcal/mol; to ELREAFRLYDKEGNGYISTDVMREILAELDEMLSSEDLDAMIDEIDADGSGTVDFEEFMGVMT, 1.52 kcal/mol. As to ELREAFRLYDKEGNGYISTDVMREILAELDEPLSSEDLDAMIDEIDADGSGTVDFEEFMGVMT, the “folding stability dG” value came to 0.441 kcal/mol. To ELREAFRLYDKEGNGYISTDVMREILAELDEHLSSEDLDAMIDEIDADGSGTVDFEEFMGVMT belongs 1.8 kcal/mol; to ELREAFRLYDKEGNGYISTDVMREILAELDELLSSEDLDAMIDEIDADGSGTVDFEEFMGVMT, 1.46 kcal/mol; to ELREAFRLYDKEGNGYISTDVMREILAELDEFLSSEDLDAMIDEIDADGSGTVDFEEFMGVMT, 1.62 kcal/mol. For the variant ELREAFRLYDKEGNGYISTDVMREILAELDEKLSSEDLDAMIDEIDADGSGTVDFEEFMGVMT, the “folding stability dG” value amounted to 1.79 kcal/mol.

With ELREAFRLYDKEGNGYISTDVMREILAELDEQLSSEDLDAMIDEIDADGSGTVDFEEFMGVMT, the “folding stability dG” value turned out to be 1.57 kcal/mol. To ELREAFRLYDKEGNGYISTDVMREILAELDEGLSSEDLDAMIDEIDADGSGTVDFEEFMGVMT belongs 1.67 kcal/mol; to ELREAFRLYDKEGNGYISTDVMREILAELDENLSSEDLDAMIDEIDADGSGTVDFEEFMGVMT, 1.86 kcal/mol. To ELREAFRLYDKEGNGYISTDVMREILAELDEELSSEDLDAMIDEIDADGSGTVDFEEFMGVMT belongs 1.48 kcal/mol. To ELREAFRLYDKEGNGYISTDVMREILAELDECLSSEDLDAMIDEIDADGSGTVDFEEFMGVMT belongs 1.73 kcal/mol. Regarding ELREAFRLYDKEGNGYISTDVMREILAELDEVLSSEDLDAMIDEIDADGSGTVDFEEFMGVMT, the “folding stability dG” value came to 0.877 kcal/mol.

ELREAFRLYDKEGNGYISTDVMREILAELDEWLSSEDLDAMIDEIDADGSGTVDFEEFMGVMT: the “folding stability dG” value turned out to be 1.62 kcal/mol. Regarding ELREAFRLYDKEGNGYISTDVMREILAELDETLTSEDLDAMIDEIDADGSGTVDFEEFMGVMT, the “folding stability dG” value came to 2.12 kcal/mol. To ELREAFRLYDKEGNGYISTDVMREILAELDETLNSEDLDAMIDEIDADGSGTVDFEEFMGVMT belongs 1.58 kcal/mol; to ELREAFRLYDKEGNGYISTDVMREILAELDETLWSEDLDAMIDEIDADGSGTVDFEEFMGVMT, 0.76 kcal/mol; to ELREAFRLYDKEGNGYISTDVMREILAELDETLMSEDLDAMIDEIDADGSGTVDFEEFMGVMT, 1.27 kcal/mol. To ELREAFRLYDKEGNGYISTDVMREILAELDETLCSEDLDAMIDEIDADGSGTVDFEEFMGVMT belongs 1.2 kcal/mol. To ELREAFRLYDKEGNGYISTDVMREILAELDETLKSEDLDAMIDEIDADGSGTVDFEEFMGVMT belongs 1.45 kcal/mol.

For the variant ELREAFRLYDKEGNGYISTDVMREILAELDETLYSEDLDAMIDEIDADGSGTVDFEEFMGVMT, the “folding stability dG” value turned out to be 0.751 kcal/mol. With ELREAFRLYDKEGNGYISTDVMREILAELDETLISEDLDAMIDEIDADGSGTVDFEEFMGVMT, the “folding stability dG” value was determined as 0.894 kcal/mol.

Consider ELREAFRLYDKEGNGYISTDVMREILAELDETLASEDLDAMIDEIDADGSGTVDFEEFMGVMT, for which the “folding stability dG” value stood at 1.26 kcal/mol. For ELREAFRLYDKEGNGYISTDVMREILAELDETLLSEDLDAMIDEIDADGSGTVDFEEFMGVMT, the “folding stability dG” value is 1.21 kcal/mol. As for ELREAFRLYDKEGNGYISTDVMREILAELDETLRSEDLDAMIDEIDADGSGTVDFEEFMGVMT, the “folding stability dG” value is 1.47 kcal/mol.

In the case of ELREAFRLYDKEGNGYISTDVMREILAELDETLESEDLDAMIDEIDADGSGTVDFEEFMGVMT, the “folding stability dG” value came to 1.05 kcal/mol.

For the variant ELREAFRLYDKEGNGYISTDVMREILAELDETLHSEDLDAMIDEIDADGSGTVDFEEFMGVMT, the “folding stability dG” value was 0.919 kcal/mol. To ELREAFRLYDKEGNGYISTDVMREILAELDETLGSEDLDAMIDEIDADGSGTVDFEEFMGVMT belongs 1.26 kcal/mol; to ELREAFRLYDKEGNGYISTDVMREILAELDETLFSEDLDAMIDEIDADGSGTVDFEEFMGVMT, 0.67 kcal/mol. On to ELREAFRLYDKEGNGYISTDVMREILAELDETLQSEDLDAMIDEIDADGSGTVDFEEFMGVMT, for which the “folding stability dG” value is 1.18 kcal/mol. To ELREAFRLYDKEGNGYISTDVMREILAELDETLDSEDLDAMIDEIDADGSGTVDFEEFMGVMT belongs 1.3 kcal/mol; to ELREAFRLYDKEGNGYISTDVMREILAELDETLVSEDLDAMIDEIDADGSGTVDFEEFMGVMT, 1.02 kcal/mol.

Turning to ELREAFRLYDKEGNGYISTDVMREILAELDETLPSEDLDAMIDEIDADGSGTVDFEEFMGVMT, the “folding stability dG” value was 0.476 kcal/mol.

Consider ELREAFRLYDKEGNGYISTDVMREILAELDTTLSSEDLDAMIDEIDADGSGTVDFEEFMGVMT, for which the “folding stability dG” value was determined as 2.12 kcal/mol.

For the variant ELREAFRLYDKEGNGYISTDVMREILAELDSTLSSEDLDAMIDEIDADGSGTVDFEEFMGVMT, the “folding stability dG” value was 2.28 kcal/mol.

For ELREAFRLYDKEGNGYISTDVMREILAELDWTLSSEDLDAMIDEIDADGSGTVDFEEFMGVMT, the “folding stability dG” value is 1.98 kcal/mol.

With ELREAFRLYDKEGNGYISTDVMREILAELDVTLSSEDLDAMIDEIDADGSGTVDFEEFMGVMT, the “folding stability dG” value was 2.01 kcal/mol. To ELREAFRLYDKEGNGYISTDVMREILAELDYTLSSEDLDAMIDEIDADGSGTVDFEEFMGVMT belongs 2.01 kcal/mol. ELREAFRLYDKEGNGYISTDVMREILAELDETSSSEDLDAMIDEIDADGSGTVDFEEFMGVMT: the “folding stability dG” value is 0.411 kcal/mol. As to ELREAFRLYDKEGNGYISTDVMREILAELDETVSSEDLDAMIDEIDADGSGTVDFEEFMGVMT, the “folding stability dG” value worked out at 0.861 kcal/mol.

For ELREAFRLYDKEGNGYISTDVMREILAELDETFSSEDLDAMIDEIDADGSGTVDFEEFMGVMT, the “folding stability dG” value turned out to be 1.34 kcal/mol.

Turning to ELREAFRLYDKEGNGYISTDVMREILAELDETKSSEDLDAMIDEIDADGSGTVDFEEFMGVMT, the “folding stability dG” value stood at 0.956 kcal/mol. To ELREAFRLYDKEGNGYISTDVMREILAELDETGSSEDLDAMIDEIDADGSGTVDFEEFMGVMT belongs -0.126 kcal/mol; to ELREAFRLYDKEGNGYISTDVMREILAELDETWSSEDLDAMIDEIDADGSGTVDFEEFMGVMT, 1.83 kcal/mol; to ELREAFRLYDKEGNGYISTDVMREILAELDETPSSEDLDAMIDEIDADGSGTVDFEEFMGVMT, -0.18 kcal/mol. To ELREAFRLYDKEGNGYISTDVMREILAELDETRSSEDLDAMIDEIDADGSGTVDFEEFMGVMT belongs 1.36 kcal/mol. To ELREAFRLYDKEGNGYISTDVMREILAELDETHSSEDLDAMIDEIDADGSGTVDFEEFMGVMT belongs 0.717 kcal/mol; to ELREAFRLYDKEGNGYISTDVMREILAELDETTSSEDLDAMIDEIDADGSGTVDFEEFMGVMT, 0.695 kcal/mol; to ELREAFRLYDKEGNGYISTDVMREILAELDETNSSEDLDAMIDEIDADGSGTVDFEEFMGVMT, 0.113 kcal/mol.

For the variant ELREAFRLYDKEGNGYISTDVMREILAELDETQSSEDLDAMIDEIDADGSGTVDFEEFMGVMT, the “folding stability dG” value was 0.501 kcal/mol. Consider ELREAFRLYDKEGNGYISTDVMREILAELDETCSSEDLDAMIDEIDADGSGTVDFEEFMGVMT, for which the “folding stability dG” value turned out to be 1.07 kcal/mol. To ELREAFRLYDKEGNGYISTDVMREILAELDETMSSEDLDAMIDEIDADGSGTVDFEEFMGVMT belongs 1.41 kcal/mol.

As to ELREAFRLYDKEGNGYISTDVMREILAELDETYSSEDLDAMIDEIDADGSGTVDFEEFMGVMT, the “folding stability dG” value was determined as 1.43 kcal/mol. To ELREAFRLYDKEGNGYISTDVMREILAELDETASSEDLDAMIDEIDADGSGTVDFEEFMGVMT belongs 1.02 kcal/mol. To ELREAFRLYDKEGNGYISTDVMREILAELDETISSEDLDAMIDEIDADGSGTVDFEEFMGVMT belongs 1.36 kcal/mol. With ELREAFRLYDKEGNGYISTDVMREILAELDETESSEDLDAMIDEIDADGSGTVDFEEFMGVMT, the “folding stability dG” value was -0.382 kcal/mol. To ELREAFRLYDKEGNGYISTDVMREILAELDETDSSEDLDAMIDEIDADGSGTVDFEEFMGVMT belongs -0.084 kcal/mol. ELREAFRLYDKEGNGYISTDVMREILAELDETLSKEDLDAMIDEIDADGSGTVDFEEFMGVMT: the “folding stability dG” value was 2.14 kcal/mol. With ELREAFRLYDKEGNGYISTDVMREILAELDETLSCEDLDAMIDEIDADGSGTVDFEEFMGVMT, the “folding stability dG” value worked out at 1.64 kcal/mol.

ELREAFRLYDKEGNGYISTDVMREILAELDETLSDEDLDAMIDEIDADGSGTVDFEEFMGVMT: the “folding stability dG” value was 1.92 kcal/mol.

Take ELREAFRLYDKEGNGYISTDVMREILAELDETLSLEDLDAMIDEIDADGSGTVDFEEFMGVMT: the “folding stability dG” value was found to be 1.69 kcal/mol. To ELREAFRLYDKEGNGYISTDVMREILAELDETLSIEDLDAMIDEIDADGSGTVDFEEFMGVMT belongs 1.79 kcal/mol. To ELREAFRLYDKEGNGYISTDVMREILAELDETLSPEDLDAMIDEIDADGSGTVDFEEFMGVMT belongs 2.06 kcal/mol; to ELREAFRLYDKEGNGYISTDVMREILAELDETLSTEDLDAMIDEIDADGSGTVDFEEFMGVMT, 1.81 kcal/mol; to ELREAFRLYDKEGNGYISTDVMREILAELDETLSEEDLDAMIDEIDADGSGTVDFEEFMGVMT, 2.15 kcal/mol. With ELREAFRLYDKEGNGYISTDVMREILAELDETLSYEDLDAMIDEIDADGSGTVDFEEFMGVMT, the “folding stability dG” value amounted to 1.53 kcal/mol.

On to ELREAFRLYDKEGNGYISTDVMREILAELDETLSNEDLDAMIDEIDADGSGTVDFEEFMGVMT, for which the “folding stability dG” value came out at 1.85 kcal/mol. To ELREAFRLYDKEGNGYISTDVMREILAELDETLSHEDLDAMIDEIDADGSGTVDFEEFMGVMT belongs 1.82 kcal/mol; to ELREAFRLYDKEGNGYISTDVMREILAELDETLSFEDLDAMIDEIDADGSGTVDFEEFMGVMT, 1.48 kcal/mol.

Turning to ELREAFRLYDKEGNGYISTDVMREILAELDETLSMEDLDAMIDEIDADGSGTVDFEEFMGVMT, the “folding stability dG” value was determined as 1.86 kcal/mol. To ELREAFRLYDKEGNGYISTDVMREILAELDETLSQEDLDAMIDEIDADGSGTVDFEEFMGVMT belongs 2.05 kcal/mol; to ELREAFRLYDKEGNGYISTDVMREILAELDETLSWEDLDAMIDEIDADGSGTVDFEEFMGVMT, 1.48 kcal/mol; to ELREAFRLYDKEGNGYISTDVMREILAELDETLSGEDLDAMIDEIDADGSGTVDFEEFMGVMT, 1.78 kcal/mol. To ELREAFRLYDKEGNGYISTDVMREILAELDETLSAEDLDAMIDEIDADGSGTVDFEEFMGVMT belongs 1.92 kcal/mol; to ELREAFRLYDKEGNGYISTDVMREILAELDETLSREDLDAMIDEIDADGSGTVDFEEFMGVMT, 1.96 kcal/mol; to ELREAFRLYDKEGNGYISTDVMREILAELDETLSVEDLDAMIDEIDADGSGTVDFEEFMGVMT, 1.77 kcal/mol.
